Data published in publication PMC6597003 (ACS chemical biology, 2018).
Ends that are not written are not given here.

Target: ephrin type-A receptor 2 ligand-binding domain (UniProt P29317 23-202)
Test: DELFIA displacement assay
Conditions: not given

ephrin type-A receptor 2 ligand-binding domain, sequence (P29317 23-202): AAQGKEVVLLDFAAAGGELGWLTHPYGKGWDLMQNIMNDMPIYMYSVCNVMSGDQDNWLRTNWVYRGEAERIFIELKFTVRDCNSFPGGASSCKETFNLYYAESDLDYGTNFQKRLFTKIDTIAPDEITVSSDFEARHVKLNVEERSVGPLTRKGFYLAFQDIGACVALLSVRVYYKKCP

| Molecule | IC50 |
| --- | --- |
| YSAYPLSVEMMS-NH2 [135B2] | > 200 µM |
| YSCYPDSVPFRP-NH2 [135D6] | > 100 µM |
| YSAYPDSVEMMS-NH2 [135B1] | > 100 µM |
| YSLYPDSVPFRP-NH2 [135D8] | > 200 µM |
| YDYVAVAGPAEY-NH2 [135A1 (1C1)] | > 500 µM |
| YSAYPLSVEFRP-NH2 [135A7] | > 100 µM |
| FTAFPLGFEFRP-NH2 [135B8] | > 100 µM |
| FTAFPLGFEMMS-NH2 [135B9] | > 100 µM |
| YSVYPDSVPFRP-NH2 [135D7] | > 200 µM |

System: EphA2
Test: not given
Conditions: recently reported by the authors; cited from earlier work

| Molecule | concentration required in cell-based assays to activate the receptor |
| --- | --- |
| CSCC[C@H](NC(=O)[C@H](CCSC)NC(=O)[C@@H]1CCCN1C(=O)[C@@H](NC(=O)[C@H](CO)NC(=O)[C@H](CC(=O)O)NC(=O)[C@@H]1CCCN1C(=O)[C@H](Cc1ccc(O)cc1)NC(=O)[C@H](C)NC(=O)[C@H](CO)NC(=O)[C@@H](N)Cc1ccc(O)cc1)C(C)C)C(=O)N[C@@H](CO)C(N)=O [YSA] | tripledigit micromolar concentration |
